Molecular target: the molecule itself
Experiment: cryo-EM structure

B1: Transmembrane protein 175 (TMEM175), human (natural protein)
chain: MSQPRTPEQALDTPGDCPPGRRDEDAGEGIQCSQRMLSFSDALLSIIATVMILPVTHTEISPEQQFDRSVQRLLATRIAVYLMTFLIVTVAWAAHTRLFQVVGKTDDTLALLNLACMMTITFLPYTFSLMVTFPDVPLGIFLFCVCVIAIGVVQALIVGYAFHFPHLLSPQIQRSAHRALYRRHVLGIVLQGPALCFAAAIFSLFFVPLSYLLMVTVILLPYVSKVTGWCRDRLLGHREPSAHPVEVFSFDLHEPLSKERVEAFSDGVYAIVATLLILDICEDNVPDPKDVKERFSGSLVAALSATGPRFLAYFGSFATVGLLWFAHHSLFLHVRKATRAMGLLNTLSLAFVGGLPLAYQQTSAFARQPRDELERVRVSCTIIFLASIFQLAMWTTALLHQAETLQPSVWFGGREHVLMFAKLALYPCASLLAFASTCLLSRFSVGIFHLMQIAVPCAFLLLRLLVGLALATLRVLRGLARPEHPPPAPTGQDDPQSQLLPAPC
binding result: binds

— publication PMC9636928 (Proceedings of the National Academy of Sciences of the …, 2022)
